# Laboratory results as given in paper PMC13066552 (Nature Communications, 2026).
# B1: Bpa 31-146 (domain or fragment)
# chain: DSDESSLTDLVEQPAKVMRIGTMIKQLLEEVRAAPLDEASRNRLRDIHATSIRELEDGLAPELREELDRLTLPFNEDAVPSDAELRIAQAQLVGWLEGLFHGIQTALFAQQMAARA
# B2: Mycobacterium tuberculosis bacterial proteasome activator Bpa, full-length wild type (natural protein)
# chain: MVIGLSTGSDDDDVEVIGGVDPRLIAVQENDSDESSLTDLVEQPAKVMRIGTMIKQLLEEVRAAPLDEASRNRLRDIHATSIRELEDGLAPELREELDRLTLPFNEDAVPSDAELRIAQAQLVGWLEGLFHGIQTALFAQQMAARAQLQQMRQGALPPGVGKSGQHGHGTGQYL
# What was measured:
# [1] = molecular target: Bpa 31-146 (Mycobacterium tuberculosis) (UniProt P9WKX3); assay: NMR titration
# [2] = molecular target: the molecule itself; assay: methyl-TROSY NMR spectra compared
# native MS = molecular target: the molecule itself; assay: native MS
molecule,measurement,setting,value
DNA-binding domain of human Telomeric Repeat-binding Factor 1 (residues 378-430) (domain or fragment),Kd,[1],1500 nM
B1,stoichiometry N,[2],12 subunits
B2,stoichiometry N,native MS,2 subunits
